This note sets out measurements from patent publication US20230357429A1 (JANUX THERAPEUTICS, published 2023).

One experiment addresses T1, Cyno TROP2 Full length (cynomolgus monkey, UniProt P09758 31-323 (human entry)).
T1 chain: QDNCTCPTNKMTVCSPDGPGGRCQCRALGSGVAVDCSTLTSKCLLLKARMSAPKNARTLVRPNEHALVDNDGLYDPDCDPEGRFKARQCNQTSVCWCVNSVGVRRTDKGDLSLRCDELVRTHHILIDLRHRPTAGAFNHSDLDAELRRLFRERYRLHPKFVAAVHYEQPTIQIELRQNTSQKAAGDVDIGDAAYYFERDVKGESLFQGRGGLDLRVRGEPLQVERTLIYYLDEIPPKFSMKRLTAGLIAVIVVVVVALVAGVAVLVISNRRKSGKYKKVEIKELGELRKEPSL
Nature of the experiment: cell-based or functional assay.

The target in a further experiment is T2, Human TROP2 Full length (human, UniProt P09758 31-323).
T2 sequence: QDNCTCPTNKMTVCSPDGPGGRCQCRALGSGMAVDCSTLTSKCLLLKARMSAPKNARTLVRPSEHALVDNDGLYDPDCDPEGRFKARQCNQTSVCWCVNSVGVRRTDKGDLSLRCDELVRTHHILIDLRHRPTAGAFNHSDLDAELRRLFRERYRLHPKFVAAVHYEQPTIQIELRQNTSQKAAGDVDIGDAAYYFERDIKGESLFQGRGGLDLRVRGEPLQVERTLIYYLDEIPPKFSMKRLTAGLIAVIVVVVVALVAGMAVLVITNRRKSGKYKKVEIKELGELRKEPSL
Nature of the experiment: cell-based or functional assay.

The target in another experiment is T3, Peptide-68 (cysteine pairing not given here; also: biotinylated, site not given here).
T3 construct: mask peptide for the CD3 scFv
T3 peptide: DWCWYSPDNDGLCD
Nature of the experiment: ELISA, TCE on captured biotin-peptide.

For the next experiment, the target named is T4, Peptide-71 (cysteine pairing not given here; also: biotinylated, site not given here).
T4 construct: mask peptide for the CD3 scFv
T4 peptide: VDCGPDGDESILCY
Nature of the experiment: ELISA, TCE on captured biotin-peptide. A general note: In an ELISA, binding on a coated surface is turned into a signal by an enzyme label.

The target of a further experiment is T5, Peptide-69 (cysteine pairing not given here; also: biotinylated, site not given here).
T5 construct: mask peptide for the CD3 scFv
T5 peptide: SECLVDLQSDPCYW
Nature of the experiment: ELISA, TCE on captured biotin-peptide.

The next experiment has as its target T6, Peptide-70 (cysteine pairing not given here; also: biotinylated, site not given here).
T6 construct: mask peptide for the CD3 scFv
T6 peptide: YLCGPDGDETLACY
Nature of the experiment: ELISA, TCE on captured biotin-peptide.

The target in experiment [1] is T7, Human TROP2 ECD (31-274 AA), biotinylated (human, UniProt P09758 31-274, biotinylated (site not stated)).
T7 construct: also called tumor-associated calcium signal transducer 2; Human TROP2-biotin
T7 sequence: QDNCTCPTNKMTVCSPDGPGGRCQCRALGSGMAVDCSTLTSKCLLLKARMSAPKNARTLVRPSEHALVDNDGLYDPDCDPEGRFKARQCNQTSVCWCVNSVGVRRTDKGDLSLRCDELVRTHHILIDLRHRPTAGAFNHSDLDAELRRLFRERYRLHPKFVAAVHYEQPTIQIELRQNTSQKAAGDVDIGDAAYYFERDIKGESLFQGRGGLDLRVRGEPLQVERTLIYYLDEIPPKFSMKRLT
Nature of the experiment: ELISA on immobilized TROP2.

Where no end group is shown, it is not given here.

B1: TCE-7 (bispecific antibody)
light: DIQLTQSPSSLSASVGDRVSITCKASQDVSIAVAWYQQKPGKAPKLLIYSASYRYTGVPDRFSGSGSGTDFTLTISSLQPEDFAVYYCQQHYITPLTFGAGTKVEIKRTVAAPSVFIFPPSDEQLKSGTASVVCLLNNFYPREAKVQWKVDNALQSGNSQESVTEQDSKDSTYSLSSTLTLSKADYEKHKVYACEVTHQGLSSPVTKSFNRGEC
heavy: not shown
For the molecule B1, the “CyTROP2 HEK293 EC50 (pM)” value with Cyno TROP2 Full length was found to be 0.11 pM. Besides, the “HCT116 Cytotoxicity EC50 (pM)” value in the experiment with Human TROP2 Full length is 113 pM.

B2: TCE-34 (anti-CD3 scFv P41S, A49G, N87S, L150F, T151S, G163R, P175A, K181T, T200V, A202D, L208I, G211N, L217I, S218T, V220A, P222A, E223D, A226S, E227D; … (bispecific antibody)
light: DIQLTQSPSSLSASVGDRVSITCKASQDVSIAVAWYQQKPGKAPKLLIYSASYRYTGVPDRFSGSGSGTDFTLTISSLQPEDFAVYYCQQHYITPLTFGAGTKVEIKRTVAAPSVFIFPPSDEQLKSGTASVVCLLNNFYPREAKVQWKVDNALQSGNSQESVTEQDSKDSTYSLSSTLTLSKADYEKHKVYACEVTHQGLSSPVTKSFNRGEC
heavy: EVQLVESGGGLVQPGGSLKLSCAASGFTFNKYAMNWVRQASGKGLEWVGRIRSKYNNYATYYADSVKDRFTISRDDSKNTAYLQMNSLKTEDTAVYYCVRHGNFGNSYISYWAYWGQGTLVTVSSGGGGSGGGGSGGGGSQTVVTQEPSFSVSPGGTVTLTCRSSTGAVTSGNYANWVQQTPGQAPRGLIGGTKFLAPGVPDRFSGSILGNKAALTITGAQADDESDYYCVLWYSNRWVFGGGTKLTVLGGGGSQVQLQQSGSELKKPGASVKVSCKASGYTFTNYGMNWVKQAPGQGLKWMGWINTYTGEPTYTDDFKGRFAFSLDTSVSTAYLQISSLKADDTAVYFCARGGFGSSYWYFDVWGQGSLVTVSSASTKGPSVFPLAPSSKSTSGGTAALGCLVKDYFPEPVTVSWNSGALTSGVHTFPAVLQSSGLYSLSSVVTVPSSSLGTQTYICNVNHKPSNTKVDKKVEPKSC
notes: scFv on the Fab heavy chain
For the molecule B2, the EC50 came out at 0.41 nM with Peptide-68, 0.32 nM with Peptide-71, 0.31 nM with Peptide-69 and 0.29 nM in the experiment with Peptide-70.

B3: TCE-38 (bispecific antibody)
light: DIQLTQSPSSLSASVGDRVSITCKASQDVSIAVAWYQQKPGKAPKLLIYSASYRYTGVPDRFSGSGSGTDFTLTISSLQPEDFAVYYCQQHYITPLTFGAGTKVEIKRTVAAPSVFIFPPSDEQLKSGTASVVCLLNNFYPREAKVQWKVDNALQSGNSQESVTEQDSKDSTYSLSSTLTLSKADYEKHKVYACEVTHQGLSSPVTKSFNRGEC
heavy: not shown
As for B3, in the experiment with Cyno TROP2 Full length, the “CyTROP2 HEK293 EC50 (pM)” value is 3.6 pM. The “HCT116 Cytotoxicity EC50 (pM)” value in the experiment with Human TROP2 Full length was > 3000 pM.

B4: TCE-48 (bispecific antibody)
light: DIQLTQSPSSLSASVGDRVSITCKASQDVSIAVAWYQQKPGKAPKLLIYSASYRYTGVPDRFSGSGSGTDFTLTISSLQPEDFAVYYCQQHYITPLTFGAGTKVEIKRTVAAPSVFIFPPSDEQLKSGTASVVCLLNNFYPREAKVQWKVDNALQSGNSQESVTEQDSKDSTYSLSSTLTLSKADYEKHKVYACEVTHQGLSSPVTKSFNRGEC
heavy: not shown
Regarding B4, in the experiment with Cyno TROP2 Full length, the “CyTROP2 HEK293 EC50 (pM)” value was determined as 0.8 pM. The “H292 Cytotoxicity EC50 (pM)” value with Human TROP2 Full length stood at 7.2 pM.

B5: PC-21 (bispecific antibody)
light: not shown
heavy: GGVDFCALYHWPICYQGGGGSGGLSGRSDAGSPLGLAGSGGSQVQLQQSGSELKKPGASVKVSCKASGYTFTNYGMNWVKQAPGQGLKWMGWINTYTGEPTYTDDFKGRFAFSLDTSVSTAYLQISSLKADDTAVYFCARGGFGSSYWYFAVWGQGSLVTVSSASTKGPSVFPLAPSSKSTSGGTAALGCLVKDYFPEPVTVSWNSGALTSGVHTFPAVLQSSGLYSLSSVVTVPSSSLGTQTYICNVNHKPSNTKVDKKVEPKSC
notes: anti-TROP2 D109A
Molecule B5 yielded an EC50 in experiment [1] of 168 nM.

B6: PC-27 (bispecific antibody)
light: not shown
heavy: GGVDFCAIYSWPICKIGGGGSGGLSGRSDAGSPLGLAGSGGSQVQLQQSGSELKKPGASVKVSCKASGYTFTNYGMNWVKQAPGQGLKWMGWINTYTGEPTYTDDFKGRFAFSLDTSVSTAYLQISSLKADDTAVYFCARGGFGSSYWYFAVWGQGSLVTVSSASTKGPSVFPLAPSSKSTSGGTAALGCLVKDYFPEPVTVSWNSGALTSGVHTFPAVLQSSGLYSLSSVVTVPSSSLGTQTYICNVNHKPSNTKVDKKVEPKSC
notes: anti-TROP2 D109A
As to B6, the EC50 in experiment [1] is 214 nM.

In general, EC50 refers to the concentration needed to bring the measured effect to its halfway point. Higher therefore signals a less potent agent.
